Measurements as given in IntAct's records for PubMed 35512704.

B1: Mothers against decapentaplegic homolog 4 (Homo sapiens), Q13485 (parent)
chain: MDNMSITNTPTSNDACLSIVHSLMCHRQGGESETFAKRAIESLVKKLKEKKDELDSLITAITTNGAHPSKCVTIQRTLDGRLQVAGRKGFPHVIYARLWRWPDLHKNELKHVKYCQYAFDLKCDSVCVNPYHYERVVSPGIDLSGLTLQSNAPSSMMVKDEYVHDFEGQPSLSTEGHSIQTIQHPPSNRASTETYSTPALLAPSESNATSTANFPNIPVASTSQPASILGGSHSEGLLQIASGPQPGQQQNGFTGQPATYHHNSTTTWTGSRTAPYTPNLPHHQNGHLQHHPPMPPHPGHYWPVHNELAFQPPISNHPAPEYWCSIAYFEMDVQVGETFKVPSSCPIVTVDGYVDPSGGDRFCLGQLSNVHRTEAIERARLHIGKGVQLECKGEGDVWVRCLSDHAVFVQSYYLDREAGRAPGDAVHKIYPSAYIKVFDLRQCHRQMQQQAATAQAAAAAQAAAVAGNIPGPGSVGGIAPAISLSAAAGIGVDDLRRLCILRMSFVKGWGPDYPRQSIKETPCWIEIHLHRALQLLDEVLHTMPIADPQPLD

Variants of: B1
Conditions: with smad3_human SMAD3, P84022

effect of a mutation on the interaction | Variant
disrupting interaction strength | G386D

Variants of: B1
Conditions: with smad1_human SMAD1, Q15797
Chain of smad1_human SMAD1, Q15797 (Q15797 whole entry): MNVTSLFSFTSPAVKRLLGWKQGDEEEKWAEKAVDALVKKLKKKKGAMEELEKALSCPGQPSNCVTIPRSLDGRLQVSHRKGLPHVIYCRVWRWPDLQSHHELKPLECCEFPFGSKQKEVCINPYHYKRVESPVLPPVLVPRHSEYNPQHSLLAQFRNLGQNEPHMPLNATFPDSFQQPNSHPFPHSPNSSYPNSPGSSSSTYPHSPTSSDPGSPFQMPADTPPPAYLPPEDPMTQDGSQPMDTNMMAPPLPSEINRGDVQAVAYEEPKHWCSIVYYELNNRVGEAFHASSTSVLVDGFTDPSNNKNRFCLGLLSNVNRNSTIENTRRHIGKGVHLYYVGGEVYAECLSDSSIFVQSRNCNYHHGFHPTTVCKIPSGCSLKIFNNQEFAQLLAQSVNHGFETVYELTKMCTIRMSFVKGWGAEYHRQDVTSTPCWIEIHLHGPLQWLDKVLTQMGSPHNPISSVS

effect of a mutation on the interaction | Variant
disrupting interaction strength | G386D

Variants of: B1
Conditions: with axin2_human AXIN2, Q9Y2T1
Chain of axin2_human AXIN2, Q9Y2T1 (Q9Y2T1 whole entry): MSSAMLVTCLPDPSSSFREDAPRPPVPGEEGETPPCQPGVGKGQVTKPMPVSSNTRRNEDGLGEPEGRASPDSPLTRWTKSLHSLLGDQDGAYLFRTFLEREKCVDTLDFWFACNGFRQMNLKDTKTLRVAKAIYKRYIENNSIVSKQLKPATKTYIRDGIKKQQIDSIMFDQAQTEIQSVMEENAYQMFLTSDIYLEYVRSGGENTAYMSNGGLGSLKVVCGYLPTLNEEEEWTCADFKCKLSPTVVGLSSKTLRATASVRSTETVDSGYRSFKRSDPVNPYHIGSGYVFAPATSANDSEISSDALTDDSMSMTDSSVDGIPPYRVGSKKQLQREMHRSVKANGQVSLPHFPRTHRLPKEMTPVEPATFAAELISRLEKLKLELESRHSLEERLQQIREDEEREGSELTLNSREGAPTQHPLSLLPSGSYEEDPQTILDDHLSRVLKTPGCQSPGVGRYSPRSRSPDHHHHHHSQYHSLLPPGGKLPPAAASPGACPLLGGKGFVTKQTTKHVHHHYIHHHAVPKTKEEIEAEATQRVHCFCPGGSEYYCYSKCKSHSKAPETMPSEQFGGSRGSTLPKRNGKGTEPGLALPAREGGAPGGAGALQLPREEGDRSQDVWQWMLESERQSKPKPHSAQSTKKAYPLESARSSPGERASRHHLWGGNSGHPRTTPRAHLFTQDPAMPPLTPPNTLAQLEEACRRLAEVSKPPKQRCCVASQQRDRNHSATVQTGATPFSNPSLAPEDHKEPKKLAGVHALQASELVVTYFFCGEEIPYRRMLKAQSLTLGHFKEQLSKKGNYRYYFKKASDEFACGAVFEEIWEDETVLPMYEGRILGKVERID

effect of a mutation on the interaction | Variant
causing an interaction | G386D

Variants of: B1
Conditions: with gsk3b_human GSK3B

effect of a mutation on the interaction | Variant
causing an interaction | G386D

Variants of: B1
Conditions: with agap2_human AGAP2, Q99490

effect of a mutation on the interaction | Variant
with no effect | G386D

Variants of: B1
Conditions: with ajuba_human AJUBA

effect of a mutation on the interaction | Variant
with no effect | G386D

Variants of: B1
Conditions: with akt1_human AKT1, P31749

effect of a mutation on the interaction | Variant
with no effect | G386D

Variants of: B1
Conditions: with akts1_human AKT1S1, Q96B36

effect of a mutation on the interaction | Variant
with no effect | G386D

Variants of: B1
Conditions: with alk_human ALK

effect of a mutation on the interaction | Variant
with no effect | G386D

Variants of: B1
Conditions: with aph1a_human APH1A

effect of a mutation on the interaction | Variant
with no effect | G386D

Variants of: B1
Conditions: with arnt_human ARNT

effect of a mutation on the interaction | Variant
with no effect | G386D

Variants of: B1
Conditions: with bakor_human ATG14, Q6ZNE5

effect of a mutation on the interaction | Variant
with no effect | G386D

Variants of: B1
Conditions: with atpb_human ATP5F1B

effect of a mutation on the interaction | Variant
with no effect | G386D

Variants of: B1
Conditions: with aurkb_human AURKB

effect of a mutation on the interaction | Variant
with no effect | G386D

Variants of: B1
Conditions: with axin2_human AXIN2, Q9Y2T1
Remark: another data set of the same source

effect of a mutation on the interaction | Variant
with no effect | G386D

Variants of: B1
Conditions: with ufo_human AXL

effect of a mutation on the interaction | Variant
with no effect | G386D

Variants of: B1
Conditions: with za2g_human AZGP1, P25311

effect of a mutation on the interaction | Variant
with no effect | G386D

Variants of: B1
Conditions: with b2mg_human B2M

effect of a mutation on the interaction | Variant
with no effect | G386D

Variants of: B1
Conditions: with bap1_human BAP1, Q92560

effect of a mutation on the interaction | Variant
with no effect | G386D

Variants of: B1
Conditions: with becn1_human BECN1, Q14457

effect of a mutation on the interaction | Variant
with no effect | G386D

Variants of: B1
Conditions: with birc2_human BIRC2, Q13490

effect of a mutation on the interaction | Variant
with no effect | G386D

Variants of: B1
Conditions: with braf_human BRAF

effect of a mutation on the interaction | Variant
with no effect | G386D

Variants of: B1
Conditions: with baba2_human BABAM2, Q9NXR7

effect of a mutation on the interaction | Variant
with no effect | G386D

Variants of: B1
Conditions: with btg1_human BTG1, P62324
Chain of btg1_human BTG1, P62324 (P62324 whole entry): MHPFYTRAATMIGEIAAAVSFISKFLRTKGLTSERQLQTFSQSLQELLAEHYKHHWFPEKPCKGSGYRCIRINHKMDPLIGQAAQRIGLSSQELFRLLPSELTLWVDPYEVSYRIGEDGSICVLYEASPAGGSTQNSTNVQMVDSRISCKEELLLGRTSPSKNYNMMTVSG

effect of a mutation on the interaction | Variant
with no effect | G386D

Variants of: B1
Conditions: with btk_human BTK

effect of a mutation on the interaction | Variant
with no effect | G386D

Variants of: B1
Conditions: with cbl_human CBL

effect of a mutation on the interaction | Variant
with no effect | G386D

Variants of: B1
Conditions: with cblb_human CBLB

effect of a mutation on the interaction | Variant
with no effect | G386D

Variants of: B1
Conditions: with ccnd1_human CCND1, P24385
Chain of ccnd1_human CCND1, P24385 (P24385 whole entry): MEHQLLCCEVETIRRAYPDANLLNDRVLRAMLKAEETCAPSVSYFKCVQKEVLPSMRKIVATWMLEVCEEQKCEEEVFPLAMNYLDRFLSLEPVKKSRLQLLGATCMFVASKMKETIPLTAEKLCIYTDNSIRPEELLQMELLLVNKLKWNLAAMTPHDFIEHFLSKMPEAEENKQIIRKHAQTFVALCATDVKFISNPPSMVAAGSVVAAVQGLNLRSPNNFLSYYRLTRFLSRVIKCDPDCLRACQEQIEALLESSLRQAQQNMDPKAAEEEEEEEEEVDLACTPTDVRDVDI

effect of a mutation on the interaction | Variant
with no effect | G386D

Variants of: B1
Conditions: with ccnd2_human CCND2, P30279

effect of a mutation on the interaction | Variant
with no effect | G386D

Variants of: B1
Conditions: with ccnd3_human CCND3, P30281

effect of a mutation on the interaction | Variant
with no effect | G386D

Variants of: B1
Conditions: with cd44_human CD44, P16070
Chain of cd44_human CD44, P16070 (P16070 whole entry): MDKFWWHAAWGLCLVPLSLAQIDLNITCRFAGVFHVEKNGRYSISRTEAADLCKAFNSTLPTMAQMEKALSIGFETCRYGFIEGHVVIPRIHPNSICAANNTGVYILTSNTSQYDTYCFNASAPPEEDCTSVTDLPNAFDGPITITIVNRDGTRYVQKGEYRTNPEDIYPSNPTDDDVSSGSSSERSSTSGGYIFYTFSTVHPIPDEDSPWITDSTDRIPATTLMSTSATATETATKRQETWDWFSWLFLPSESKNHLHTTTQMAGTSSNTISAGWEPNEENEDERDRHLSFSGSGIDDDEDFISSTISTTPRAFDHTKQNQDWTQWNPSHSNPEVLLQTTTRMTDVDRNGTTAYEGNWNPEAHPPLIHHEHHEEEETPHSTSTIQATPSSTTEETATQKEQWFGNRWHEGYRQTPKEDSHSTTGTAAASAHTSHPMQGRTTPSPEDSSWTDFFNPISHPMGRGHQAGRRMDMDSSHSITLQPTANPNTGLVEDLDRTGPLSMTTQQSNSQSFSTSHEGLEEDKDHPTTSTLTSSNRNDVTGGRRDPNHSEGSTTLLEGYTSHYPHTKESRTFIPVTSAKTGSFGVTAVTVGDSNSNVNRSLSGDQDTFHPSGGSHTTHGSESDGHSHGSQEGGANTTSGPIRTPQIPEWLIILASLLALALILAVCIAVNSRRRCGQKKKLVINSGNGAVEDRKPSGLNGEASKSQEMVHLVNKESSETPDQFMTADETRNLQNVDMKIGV

effect of a mutation on the interaction | Variant
with no effect | G386D

Variants of: B1
Conditions: with cd79b_human CD79B

effect of a mutation on the interaction | Variant
with no effect | G386D

Variants of: B1
Conditions: with cdc27_human CDC27, P30260

effect of a mutation on the interaction | Variant
with no effect | G386D

Variants of: B1
Conditions: with cdk4_human CDK4, P11802
Chain of cdk4_human CDK4, P11802 (P11802 whole entry): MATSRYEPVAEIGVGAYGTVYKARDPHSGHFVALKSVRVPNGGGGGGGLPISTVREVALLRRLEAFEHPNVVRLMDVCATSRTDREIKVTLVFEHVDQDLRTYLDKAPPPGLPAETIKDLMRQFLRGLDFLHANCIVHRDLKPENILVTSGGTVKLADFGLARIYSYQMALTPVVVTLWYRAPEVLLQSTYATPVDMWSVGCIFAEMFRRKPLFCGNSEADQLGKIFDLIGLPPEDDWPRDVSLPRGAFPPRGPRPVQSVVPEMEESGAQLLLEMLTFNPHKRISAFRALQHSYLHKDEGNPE

effect of a mutation on the interaction | Variant
with no effect | G386D

Variants of: B1
Conditions: with cdk6_human CDK6, Q00534

effect of a mutation on the interaction | Variant
with no effect | G386D

Variants of: B1
Conditions: with cdn2b_human CDKN2B

effect of a mutation on the interaction | Variant
with no effect | G386D

Variants of: B1
Conditions: with cdn2c_human CDKN2C

effect of a mutation on the interaction | Variant
with no effect | G386D

Variants of: B1
Conditions: with cebpa_human CEBPA

effect of a mutation on the interaction | Variant
with no effect | G386D

Variants of: B1
Conditions: with chd1l_human CHD1L

effect of a mutation on the interaction | Variant
with no effect | G386D

Variants of: B1
Conditions: with chd2_human CHD2, O14647

effect of a mutation on the interaction | Variant
with no effect | G386D

Variants of: B1
Conditions: with ch3l1_human CHI3L1, P36222

effect of a mutation on the interaction | Variant
with no effect | G386D

Variants of: B1
Conditions: with csf1r_human CSF1R

effect of a mutation on the interaction | Variant
with no effect | G386D

Variants of: B1
Conditions: with ctna1_human CTNNA1, P35221

effect of a mutation on the interaction | Variant
with no effect | G386D

Variants of: B1
Conditions: with ctnb1_human CTNNB1, P35222

effect of a mutation on the interaction | Variant
with no effect | G386D

Variants of: B1
Conditions: with cul3_human CUL3, Q13618

effect of a mutation on the interaction | Variant
with no effect | G386D

Variants of: B1
Conditions: with dicer_human DICER1, Q9UPY3

effect of a mutation on the interaction | Variant
with no effect | G386D

Variants of: B1
Conditions: with dll3_human DLL3, Q9NYJ7

effect of a mutation on the interaction | Variant
with no effect | G386D

Variants of: B1
Conditions: with duox2_human DUOX2, Q9NRD8
Chain of duox2_human DUOX2, Q9NRD8 (Q9NRD8 whole entry): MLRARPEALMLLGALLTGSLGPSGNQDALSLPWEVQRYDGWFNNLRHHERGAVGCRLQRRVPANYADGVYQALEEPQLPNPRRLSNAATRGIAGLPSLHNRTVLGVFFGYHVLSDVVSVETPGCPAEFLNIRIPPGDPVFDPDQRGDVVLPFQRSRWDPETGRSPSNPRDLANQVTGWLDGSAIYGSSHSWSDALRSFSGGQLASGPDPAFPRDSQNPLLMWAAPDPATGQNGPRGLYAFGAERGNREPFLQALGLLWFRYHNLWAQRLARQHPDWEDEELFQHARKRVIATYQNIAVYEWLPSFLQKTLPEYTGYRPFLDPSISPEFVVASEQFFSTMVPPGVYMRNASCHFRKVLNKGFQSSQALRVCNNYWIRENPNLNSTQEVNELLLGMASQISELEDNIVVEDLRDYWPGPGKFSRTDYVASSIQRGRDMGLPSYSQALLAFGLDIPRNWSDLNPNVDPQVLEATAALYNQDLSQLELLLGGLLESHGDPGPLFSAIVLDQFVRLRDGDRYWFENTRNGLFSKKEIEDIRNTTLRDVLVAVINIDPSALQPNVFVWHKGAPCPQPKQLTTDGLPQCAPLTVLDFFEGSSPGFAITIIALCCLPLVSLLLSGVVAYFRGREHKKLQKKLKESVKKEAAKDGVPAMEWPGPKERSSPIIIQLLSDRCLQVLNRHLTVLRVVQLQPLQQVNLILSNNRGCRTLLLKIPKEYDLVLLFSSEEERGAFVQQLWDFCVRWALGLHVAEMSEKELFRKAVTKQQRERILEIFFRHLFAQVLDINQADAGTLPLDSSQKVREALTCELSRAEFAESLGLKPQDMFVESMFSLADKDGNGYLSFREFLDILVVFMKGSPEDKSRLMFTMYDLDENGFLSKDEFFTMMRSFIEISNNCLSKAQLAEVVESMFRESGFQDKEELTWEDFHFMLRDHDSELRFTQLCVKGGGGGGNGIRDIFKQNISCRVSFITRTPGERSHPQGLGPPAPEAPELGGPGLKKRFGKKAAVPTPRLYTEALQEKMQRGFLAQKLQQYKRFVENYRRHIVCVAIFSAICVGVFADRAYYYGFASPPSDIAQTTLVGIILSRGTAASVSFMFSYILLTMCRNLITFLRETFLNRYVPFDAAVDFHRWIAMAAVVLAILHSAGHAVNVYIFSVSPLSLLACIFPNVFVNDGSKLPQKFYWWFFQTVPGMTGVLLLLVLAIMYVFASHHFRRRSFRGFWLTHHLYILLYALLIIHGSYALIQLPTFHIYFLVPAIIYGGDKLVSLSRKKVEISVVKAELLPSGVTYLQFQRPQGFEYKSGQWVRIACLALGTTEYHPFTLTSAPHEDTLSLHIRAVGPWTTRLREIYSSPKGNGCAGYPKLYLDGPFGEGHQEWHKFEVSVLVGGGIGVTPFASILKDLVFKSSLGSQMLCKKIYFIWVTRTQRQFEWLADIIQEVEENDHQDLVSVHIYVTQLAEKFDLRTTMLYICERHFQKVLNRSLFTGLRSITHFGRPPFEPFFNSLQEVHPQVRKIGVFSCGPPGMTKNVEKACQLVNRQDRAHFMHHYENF

effect of a mutation on the interaction | Variant
with no effect | G386D

Variants of: B1
Conditions: with e2f1_human E2F1, Q01094

effect of a mutation on the interaction | Variant
with no effect | G386D

Variants of: B1
Conditions: with e2f2_human E2F2, Q14209

effect of a mutation on the interaction | Variant
with no effect | G386D

Variants of: B1
Conditions: with e2f4_human E2F4, Q16254

effect of a mutation on the interaction | Variant
with no effect | G386D

Variants of: B1
Conditions: with e2f5_human E2F5, Q15329
Chain of e2f5_human E2F5, Q15329 (Q15329 whole entry): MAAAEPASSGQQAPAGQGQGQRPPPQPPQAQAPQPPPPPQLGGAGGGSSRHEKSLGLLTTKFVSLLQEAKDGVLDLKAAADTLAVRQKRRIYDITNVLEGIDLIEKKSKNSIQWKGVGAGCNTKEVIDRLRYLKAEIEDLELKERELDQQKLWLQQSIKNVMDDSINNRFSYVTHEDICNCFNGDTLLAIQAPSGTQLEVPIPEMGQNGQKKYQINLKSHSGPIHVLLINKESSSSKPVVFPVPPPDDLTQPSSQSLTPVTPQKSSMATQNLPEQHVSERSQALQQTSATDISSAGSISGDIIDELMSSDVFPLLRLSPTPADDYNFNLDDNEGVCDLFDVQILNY

effect of a mutation on the interaction | Variant
with no effect | G386D

Variants of: B1
Conditions: with e2f8_human E2F8, A0AVK6

effect of a mutation on the interaction | Variant
with no effect | G386D

Variants of: B1
Conditions: with if4e_human EIF4E

effect of a mutation on the interaction | Variant
with no effect | G386D

Variants of: B1
Conditions: with epha2_human EPHA2, P29317

effect of a mutation on the interaction | Variant
with no effect | G386D

Variants of: B1
Conditions: with epha7_human EPHA7, Q15375

effect of a mutation on the interaction | Variant
with no effect | G386D

Variants of: B1
Conditions: with ephb1_human EPHB1, P54762

effect of a mutation on the interaction | Variant
with no effect | G386D

Variants of: B1
Conditions: with erbb3_human ERBB3, P21860

effect of a mutation on the interaction | Variant
with no effect | G386D

Variants of: B1
Conditions: with erbb4_human ERBB4, Q15303

effect of a mutation on the interaction | Variant
with no effect | G386D

Variants of: B1
Conditions: with esr1_human ESR1, P03372

effect of a mutation on the interaction | Variant
with no effect | G386D
